These results are taken from patent US20170073416A1 (SPRING BIOSCIENCE, published 2017).

The target in assay [1] is T1, peptide immunogen (human B7-H3 aa 521-534), KHSDSKEDDGQEIA (human, not fully specified).
T1 construct: also called immobilized peptide immunogen
T1 peptide: KHSDSKEDDGQEIA
Description: ELISA, antibody on immobilized peptide immunogen. The protocol: ELISA studies were performed with the SP265 antibody to evaluate binding to the immobilized peptide immunogen (human B7-H3 aa 521-534).

The next assay concerns the target T2, human B7-H3 (human, UniProt Q5ZPR3 29-534).
T2 construct: whole, on cells; Endogenous protein detected in FFPE cells and tissues by IHC, and as a 110 kDa band in SDS-PAGE-fractionated cell lysates by Western blot; also called B7-H3 polypeptide
T2 sequence (looked up): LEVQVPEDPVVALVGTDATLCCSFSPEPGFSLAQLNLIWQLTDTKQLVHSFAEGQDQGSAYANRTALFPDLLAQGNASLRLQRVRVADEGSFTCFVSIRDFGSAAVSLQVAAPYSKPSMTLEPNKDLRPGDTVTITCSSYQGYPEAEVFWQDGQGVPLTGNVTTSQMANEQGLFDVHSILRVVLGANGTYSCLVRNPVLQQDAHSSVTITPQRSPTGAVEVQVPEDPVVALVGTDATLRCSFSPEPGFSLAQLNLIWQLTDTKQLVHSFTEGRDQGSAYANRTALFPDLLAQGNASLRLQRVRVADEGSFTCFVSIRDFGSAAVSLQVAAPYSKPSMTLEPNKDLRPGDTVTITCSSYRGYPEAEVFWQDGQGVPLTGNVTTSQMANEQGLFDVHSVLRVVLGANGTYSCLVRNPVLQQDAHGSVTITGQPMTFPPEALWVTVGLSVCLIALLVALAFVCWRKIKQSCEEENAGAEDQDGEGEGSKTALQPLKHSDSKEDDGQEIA
Description: IHC on FFPE samples. The method, then:
Rabbit anti-human B7-H3 monoclonal antibodies SP265 and S10H50L58 were applied onto formalin-fixed paraffin embedded (FFPE) tissue samples to assess the staining patterns of these antibodies. Tissue samples include Hs700t (positive control), kidney (negative control) and renal cell carcinoma (positive control). IHC was performed on BenchMark Ultra (Ventana Medical Systems) using mild CC1 cell conditioning with OptiView detection kit.

No end group written: not given here.

B1: Rabbit anti-human B7-H3 monoclonal antibody SP265 (antibody, V domains shown)
VH: QSVEESRGGLIKPTDTLTLTCTVSGFSLGSYGVSWVRQAPGNGLEWIGGSGKRGNPYYASWAKSRSTITRNTNLNTVTLKMTSLTAADTATYFCASRAPVVSTSMTFNIWGPGTLVTVSS
VL: AQVPTQTPSPVSAAVGGTVTINCQASQSVYNNKNLSWYQQKPGQPPKLLIYEASTLASGVPSRFSGSGSGTQFALTISGVQCEDAATYYCQGEFTCSGADCGAFGGGTEVVVK
notes: also called SP265 anti-B7-H3 antibody; SP265 B7-H3 antibody
As usually defined, the EC50 is the midpoint of the concentration-response curve. A low value points to greater potency. For the molecule B1, it took 67 pM to reach a half-maximal effect in assay [1] (EC50). Also, in the assay with human B7-H3, the binding result is reported as “binds”.
